B1: 14C11 EGFRvIII specific CAR (other)
chain: QVTLKESGPVLVKPTETLTLTCTVSGFSLNNARMGVSWIRQPPGKALEWFAHIFSTDEKSFRTSLRSRLTLSKDTSKSQVVLTMTNMDPVDTATYYCARDSSNYEGYFDYWGQGILVTVSSGGGGSGGGGSGGGGSGGGGSEIVMTQSPATLSVSPGERATLSCRASQSVSNNLAWYQQKPGQAPRLLIYGASTRATGVPARFSGSDSGTEFSLTISSLQSEDFAVYFCQQYKDWPFTFGPGTKVEIKTTTPAPRPPTPAPTIASQPLSLRPEACRPAAGGAVHTRGLDFACDIYIWAPLAGTCGVLLLSLVITLYCKRGRKKLLYIFKQPFMRPVQTTQEEDGCSCRFPEEEEGGCELRVKFSRSADAPAYQQGQNQLYNELNLGRREEYDVLDKRRGRDPEMGGKPRRKNPQEGLYNELQKDKMAEAYSEIGMKGERRRGKGHDGLYQGLSTATKDTYDALHMQALPPR
notes: Chimeric antigen receptor on primary human T cells
B2: 20B9 EGFRvIII specific CAR (other)
chain: QVTLKESGPVLVKPTETLTLTCTVSGFSLSNARMGVSWIRQPPGKALEWLGHIFSTDEKSYSTSLRGRITISKDTSRGLVVLTLTNMDPVDTATYYCARDSSNYEGYFDFWGPGFLVTVSSGGGGSGGGGSGGGGSGGGGSEIVMTQSPATLSVSPGERATLSCRVSQSIGANLAWYQQKFGQAPRLLIYGASTRATGIPVRFSGGGSGTEFTLTISSLQSEDFAIYSCQQYIYWPFTFGPGTTVDIKTTTPAPRPPTPAPTIASQPLSLRPEACRPAAGGAVHTRGLDFACDIYIWAPLAGTCGVLLLSLVITLYCKRGRKKLLYIFKQPFMRPVQTTQEEDGCSCRFPEEEEGGCELRVKFSRSADAPAYQQGQNQLYNELNLGRREEYDVLDKRRGRDPEMGGKPRRKNPQEGLYNELQKDKMAEAYSEIGMKGERRRGKGHDGLYQGLSTATKDTYDALHMQALPPR
notes: as for B1
B3: 32A10 EGFRvIII specific CAR (other)
chain: QVTLKESGPVLVKPTETLTLTCTVSGFSLSNARMGVSWIRQPPGKALEWLAHIFSTDEKSIRRSLRSRLTLSKDTSKSQVVLTMTNMDPVDTATYFCARDSSNYEGYFDYWGQGTLVTVSSGGGGSGGGGSGGGGSGGGGSEVVMTQSPATLSVSPGERVTLSCRASQSVSSNFAWYQQRPGQAPRLLLYGATTRATGLPGRFSGSGSGTENILTISSLQSEDFAIYFCQQYKDWPFTFGPGSKVDIKTTTPAPRPPTPAPTIASQPLSLRPEACRPAAGGAVHTRGLDFACDIYIWAPLAGTCGVLLLSLVITLYCKRGRKKLLYIFKQPFMRPVQTTQEEDGCSCRFPEEEEGGCELRVKFSRSADAPAYQQGQNQLYNELNLGRREEYDVLDKRRGRDPEMGGKPRRKNPQEGLYNELQKDKMAEAYSEIGMKGERRRGKGHDGLYQGLSTATKDTYDALHMQALPPR
notes: as for B1
B4: 42G9 EGFRvIII specific CAR (other)
chain: QVTLKESGPVLLKPTETLTLTCTVSGFSLSNPRMGVSWIRQPPGKALEWFAHIFSTDEKSLKLSLRSRLTLSKDTSKSQVVLTMTNMAPVDSATYYCARDSSNYEGYFDFWGQGTLVTVSSGGGGSGGGGSGGGGSGGGGSEVVLTQSPATLSVSPGERATLSCRASQSVRSNLAWYQQKSGQAPRLLIYGSTIRATGVPARFSGSGSGTEFTLTISSLQSEDFAVYYCQQYSDWPFTFGPGTKVDIKTTTPAPRPPTPAPTIASQPLSLRPEACRPAAGGAVHTRGLDFACDIYIWAPLAGTCGVLLLSLVITLYCKRGRKKLLYIFKQPFMRPVQTTQEEDGCSCRFPEEEEGGCELRVKFSRSADAPAYQQGQNQLYNELNLGRREEYDVLDKRRGRDPEMGGKPRRKNPQEGLYNELQKDKMAEAYSEIGMKGERRRGKGHDGLYQGLSTATKDTYDALHMQALPPR
notes: as for B1

Target: T1, EGFR-mFc (human; mouse, UniProt P00533 25-645)
T1 construct: extracellular domain; Produced in HEK293 cells; also called recombinant EGFR-mFc; not shown: mouse IgG1-Fc domain
Experiment: flow cytometry, CAR T cells stained with mFc fusion protein, Day 4
From the text: To determine target binding specificity of the CARs, recombinant proteins EGFRvII-mFc and EGFR-mFc, which comprise of the extracellular domain of either human EGFRvIII or human wild-type EGFR, respectively, fused with mouse IgG1-Fc domain, were produced in HEK293 cells. […]

Binding result, no binding:
B1
B2
B3
B4

Reference: patent US20190144550A1 (Pfizer, published 2019)
